Laboratory results from publication PMC9400332.

B1: Cedar virus fusion protein F (CedV F): g2 (protein)
parent chain: MSNKRTTVLIIISYTLFYLNNAAIVGFDFDKLNKIGVVQGRVLNYKIKGDPMTKDLVLKFIPNIVNITECVREPLSRYNETVRRLLLPIHNMLGLYLNNTNAKMTGLMIAGVIMGGIAIGIATAAQITAGFALYEAKKNTENIQKLTDSIMKTQDSIDKLTDSVGTSILILNKLQTYINNQLVPNLELLSCRQNKIEFDLMLTKYLVDLMTVIGPNINNPVNKDMTIQSLSLLFDGNYDIMMSELGYTPQDFLDLIESKSITGQIIYVDMENLYVVIRTYLPTLIEVPDAQIYEFNKITMSSNGGEYLSTIPNFILIRGNYMSNIDVATCYMTKASVICNQDYSLPMSQNLRSCYQGETEYCPVEAVIASHSPRFALTNGVIFANCINTICRCQDNGKTITQNINQFVSMIDNSTCNDVMVDKFTIKVGKYMGRKDINNINIQIGPQIIIDKVDLSNEINKMNQSLKDSIFYLREAKRILDSVNISLISPSVQLFLIIISVLSFIILLIIIVYLYCKSKHSYKYNKFIDDPDYYNDYKRERINGKASKSNNIYYVGD
B2: Cedar virus fusion protein F (CedV F): g3 (protein)
parent chain: B1 parent chain
B3: Cedar virus fusion protein F (CedV F): g6 (protein)
parent chain: B1 parent chain
B4: Cedar virus fusion protein F (CedV F): g1 (protein)
parent chain: B1 parent chain
B5: Cedar virus fusion protein F (CedV F): g4 (protein)
parent chain: B1 parent chain

Conditions: glycan lost

Protein | localisation_or_trafficking | other: cell-cell fusion activity | other: cell-cell fusion activity, fold_change | other: proteolytic processing | expression_or_secretion
B1 | increases | decreases | decreases | no change | 
B2 | decreases |  |  | no change | 
B3 | decreases |  |  | no change | 
B4 | decreases |  |  |  | no change
B5 |  |  |  |  | no change
